Test results as given in IntAct's records for PubMed 20010843.

B1: Cadherin-5 (Homo sapiens), P33151 (parent)
chain: MQRLMMLLATSGACLGLLAVAAVAAAGANPAQRDTHSLLPTHRRQKRDWIWNQMHIDEEKNTSLPHHVGKIKSSVSRKNAKYLLKGEYVGKVFRVDAETGDVFAIERLDRENISEYHLTAVIVDKDTGENLETPSSFTIKVHDVNDNWPVFTHRLFNASVPESSAVGTSVISVTAVDADDPTVGDHASVMYQILKGKEYFAIDNSGRIITITKSLDREKQARYEIVVEARDAQGLRGDSGTATVLVTLQDINDNFPFFTQTKYTFVVPEDTRVGTSVGSLFVEDPDEPQNRMTKYSILRGDYQDAFTIETNPAHNEGIIKPMKPLDYEYIQQYSFIVEATDPTIDLRYMSPPAGNRAQVIINITDVDEPPIFQQPFYHFQLKENQKKPLIGTVLAMDPDAARHSIGYSIRRTSDKGQFFRVTKKGDIYNEKELDREVYPWYNLTVEAKELDSTGTPTGKESIVQVHIEVLDENDNAPEFAKPYQPKVCENAVHGQLVLQISAIDKDITPRNVKFKFILNTENNFTLTDNHDNTANITVKYGQFDREHTKVHFLPVVISDNGMPSRTGTSTLTVAVCKCNEQGEFTFCEDMAAQVGVSIQAVVAILLCILTITVITLLIFLRRRLRKQARAHGKSVPEIHEQLVTYDEEGGGEMDTTSYDVSVLNSVRRGGAKPPRPALDARPSLYAQVQKPPRHAPGAHGGPGEMAAMIEVKKDEADHDGDGPPYDTLHIYGYEGSESIAESLSSLGTDSSDSDVDYDFLNDWGPRFKMLAELYGSDPREELLY
partner: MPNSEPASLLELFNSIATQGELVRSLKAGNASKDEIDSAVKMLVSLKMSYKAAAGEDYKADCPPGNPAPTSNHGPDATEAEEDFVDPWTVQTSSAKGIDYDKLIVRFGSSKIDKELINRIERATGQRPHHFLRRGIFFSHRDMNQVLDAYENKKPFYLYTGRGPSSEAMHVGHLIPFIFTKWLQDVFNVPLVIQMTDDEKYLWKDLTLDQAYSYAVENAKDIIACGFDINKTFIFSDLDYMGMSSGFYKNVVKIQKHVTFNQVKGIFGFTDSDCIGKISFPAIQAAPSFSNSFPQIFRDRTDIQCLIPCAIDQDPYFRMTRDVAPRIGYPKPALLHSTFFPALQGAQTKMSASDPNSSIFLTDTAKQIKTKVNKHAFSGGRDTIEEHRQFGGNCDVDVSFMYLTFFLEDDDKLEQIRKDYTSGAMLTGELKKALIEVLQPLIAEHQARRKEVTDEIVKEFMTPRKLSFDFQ
B2: Tryptophan--tRNA ligase, cytoplasmic (Homo sapiens), P23381 (parent)
chain: B1 partner
partner: B1 chain

Variants of: B1
Settings: with sywc_human WARS1, P23381

Row | Variant | effect of a mutation on the interaction
1 | W49A | disrupting interaction
2 | W51A | disrupting interaction
3 | W49A;W51A | disrupting interaction

Variants of: B2
Settings: with cadh5_human CDH5, P33151

Row | Variant | effect of a mutation on the interaction
4 | A310W | disrupting interaction
5 | G172M | disrupting interaction
6 | G161W | disrupting interaction
7 | Y159A;Q194A | disrupting interaction
